# Data as given in publication PMC5700522.
# Target: T1, PoxCxrA17-150 (Penicillium oxalicum HP7-1) (UniProt A0A2H4WV05)
# T1 sequence: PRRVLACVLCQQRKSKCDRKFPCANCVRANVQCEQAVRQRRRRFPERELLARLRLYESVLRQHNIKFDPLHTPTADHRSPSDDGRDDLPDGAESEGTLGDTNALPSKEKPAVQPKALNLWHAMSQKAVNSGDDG
# Assay: EMSA
# Details: 20 mM Tris-HCl pH 8.0, 50 mM KCl, 5% glycerol, 1 mM DTT, 0.1 mg/mL BSA; 40 ng FAM probe, 0-4.8 ug protein; 4% PAGE in TAE; temperature not stated
row,Sequence,binding
1,GTGAAAGAGGTGCTTGTCGTGATCGCTTGCCATATGTTTCACTGTATGACTTGGGCACCGGAGCGGCACCGTGAATCAGGCTGGCCAAATCCATTGTCGGACTAGATGCTTCGTCCGTTGGGATCGTTGAATTGTGCGGAATCAGTGTCGTCGAGTGATACAATTGGGACGTGAGATTTAGTCACGACCGATAAGGTG (double strand) [PoxCxrB promoter (CxrA probe)],binds
2,CGGCTTCCAAAGACCCCATATCGACGATCGGCGATTTGGGGAGGGACTAAAGTAGGAGGGAGAGGGAGGGAGCAGAGAGGGAGGGAGCAGAGAGAGAGGGAGAGAGGGAGAGCAAGGGTGAATAACAAGAAAGCGACGATGACAAGGTTGGTAAGATAAC (double strand) [PoxNsdD promoter (CxrA probe)],binds
3,TTAGGAGTGCTATAAGATGGCGACAGAAGTCGGCCGAGGAGGAAATTCTCGTTTCCATCCACCGAGTCTGCATACATTGGATTTCGAGTTGTCAAAATGAGATACGATTTGATTCTTGCCGCCGGCGCCACTCTGGCACTGGCCGTGCCCCAGGGCATCTCCAAGCGGGCCGGAGGCTTTGTCTGTAAGTTG (double strand) [POX01166/Cel5B promoter (CxrA probe)],binds
